Tests used:
[1] = Effect of deglycosylation with PNGaseF on enzyme activity; assay type: biochemical
Protocol: Approximately 2 μg of purified enzyme was treated with PNGaseF (New England Biolabs) using denaturing and native conditions. Samples that were deglycosylated using denaturing conditions were analysed by SDS PAGE, while samples deglycosylated using native conditions were used to evaluate the impact of glycosylation on enzyme activity. The activity of enzymes was measured on 10 mM maltose at 37° C. for 15 min. (Table 7). N-glycosylation was predicted by NetNGlyc (http://www.cbs.dtu.dk/services/NetNGlyc/) while O-glycosylation was predicted by OGPET (http://ogpet.utep.edu/OGPET/).

[2] = Temperature stability (residual activity on cellobiose); assay type: physicochemical; details: for Residual activity after 1 h: assay 1 mM cellobiose, 37° C., pH 8
Protocol: (§1) Temperature stability was measured by incubating 0.2 μg of enzyme for 1 h at nine different temperatures ranging from 25 to 60° C. (Table 9). While GOOX-VN and the variant GOOX-V were stable at 45° C., both lost more than 70% activity after incubation for 1 h at 50° C. […] The pH stability of GOOX-VN was determined by incubating 0.2 μg of the enzyme for 1 h at pH values from pH 3 to 12. After 1 h of incubation, GOOX-VN retained more than 80% activity at pH 5 to pH 10, 40% activity at pH 4, and less than 10% activity at pH values below 3 or above 11. Finally, the optimum pH for GOOX-VN activity was determined by incubating 0.1 μg of enzyme at 37° C. for up to 5 min with 25 mM cellobiose in 25 mM Britton-Robinson universal buffer solutions at pH 5 to 12. At regular time points, the chromogenic assay mix containing 400 mM potassium phosphate buffer pH 6, 0.1 mM 4-aminoantipyrine, 1 mM phenol, 3 U/ml horseradish peroxidase and 40 mM cellobiose was added to the reaction and was incubated for approximately 5 min at 37° C., until the chromogenic compound was detected.

pH stability of enzyme = assay type: physicochemical
Protocol: as §1

Optimum pH for activity = assay type: biochemical; details: 25 mM cellobiose, 37° C., Britton-Robinson buffer pH 5 to 12
Protocol: as §1

[3] = Chromogenic H2O2 oxidase assay on xylopentaose; details: 1 mM xylopentaose; 37° C., 15 min
Protocol: (§2) A chromogenic assay was used to measure hydrogen peroxide production (15). Reactions contained 0.1 mM 4aminoantipyrine (4AA), 1 mM phenol, 0.5 U horseradish peroxidase, 40 mM Tris-HCl (pH 8.0), and different substrates were initiated by adding 0.2 μg of enzymes to the 250 μL reaction mixture. The production of H2O2 was coupled to the oxidation of 4aminoantipyrine by horseradish peroxidase and detected at 500 nm. Reactions were incubated at 37° C. for 15 min to measure the specific activity of GOOX on 10 mM of monosaccharide or 1 mM of oligosaccharide.
An additional eight mutations, identified as Y72F, Y72A, E247A, E314A, W351A, N388S, Q353N, Q384A, were created in GOOX-VN to assess the influence of these residues on the substrate selectivity of GOOX-VN. […] The specific activity of each mutant was then measured at 37° C. for 15 min using 10 mM mono-sugars and 1 mM oligosaccharides as performed for Y300A, Y300N, and W351F (Table 11).

[4] = substrate: OC1OC[C@@H](O[C@@H]2OC[C@@H](O)[C@H](O)[C@H]2O)[C@H](O)[C@H]1O; test: purified protein, by the assay type; details: other: 37° C., pH 8.0
Protocol: as §2
(§3) At least 12 substrate concentrations were included to obtain kinetic parameters for each substrate. Initial rates were obtained by measuring reaction products every 30 s for 15 min at 37° C. and pH 8.0, and kinetic parameters were calculated using the Michaelis-Menten equation (GraphPad Prism5 Software).

[5] = substrate: OC1OC[C@@H](O[C@@H]2OC[C@@H](O[C@@H]3OC[C@@H](O)[C@H](O)[C@H]3O)[C@H](O)[C@H]2O)[C@H](O)[C@H]1O; test: purified protein, by the assay type; details: other: 37° C., pH 8.0
Protocol: as §2, §3

[6] = substrate: OC[C@H]1OC(O)[C@H](O)[C@@H](O)[C@@H]1O; test: purified protein, by the assay type; details: other: 37° C., pH 8.0
Protocol: as §2, §3

[7] = substrate: OC[C@H]1O[C@@H](O[C@H]2[C@H](O)[C@@H](O)C(O)O[C@@H]2CO)[C@H](O)[C@@H](O)[C@@H]1O; test: purified protein, by the assay type; details: other: 37° C., pH 8.0
Protocol: as §2, §3

[8] = substrate: OC[C@H]1O[C@@H](O[C@H]2[C@H](O)[C@@H](O)[C@H](O[C@H]3[C@H](O)[C@@H](O)C(O)O[C@@H]3CO)O[C@@H]2CO)[C@H](O)[C@@H](O)[C@@H]1O; test: purified protein, by the assay type; details: other: 37° C., pH 8.0
Protocol: as §2, §3

[9] = substrate: OC[C@H]1O[C@H](O[C@H]2[C@H](O)[C@@H](O)C(O)O[C@@H]2CO)[C@H](O)[C@@H](O)[C@@H]1O; test: purified protein, by the assay type; details: other: 37° C., pH 8.0
Protocol: as §2, §3

[10] = Chromogenic H2O2 oxidase assay / kinetic analysis on NAG
Protocol: as §2, §3

[11] = Chromogenic H2O2 oxidase assay / kinetic analysis on glucose
Protocol: as §2, §3

[12] = Chromogenic H2O2 oxidase assay / kinetic analysis on galactose
Protocol: as §2, §3

[13] = Chromogenic H2O2 oxidase assay / kinetic analysis on cellobiose
Protocol: as §2, §3

[14] = Chromogenic H2O2 oxidase assay / kinetic analysis on xylotriose
Protocol: as §2, §3

[15] = Chromogenic H2O2 oxidase assay / kinetic analysis on cellotriose
Protocol: as §2, §3

[16] = 10 mM galactose, 37° C., 15 min
[17] = 1 mM cellobiose, 37° C., 15 min
[18] = 1 mM xylotriose, 37° C., 15 min
[19] = 1 mM cellotriose, 37° C., 15 min

B1: Acremonium strictum gluco-oligosaccharide oxidase GOOX-VN (type strain CBS 346.70, V38 and N388), SEQ ID NO. 2 (Sarocladium strictum; A38V/S388N) (protein)
chain: NSINACLAAADVEFHEEDSEGWEMDGTAFNLRVDYDPVAIAIPRSTEDIAAAVQCGLDAGVQISAKGGGHSYGSYGFGGEDGHLMLELDRMYRVSVDDDNVATIQGGARLGYTALELLDQGNRALTHGTCPAVGIGGHVLGGGYGFATHTHGLTLDWLVGATVVLADASIVHVSKTENADLFWALRGGGGGFAIVSEFEFNTFEAPEIITTYQVTTTWNRKQHVAGLKALQDWAENTMPRELSMRLEINANALNWEGNYFGNAKDLKKVLQPIMKKAGGKSTISKLVETDWYGQINTYLYGADLNITYNYDVHEYFYANSLTAPRLSDEAISAFVDYKFDNSSVRPGRGWWIQWDFHGGKNSALASHSNDETAYAHRDQLWLWQFYDNIYDYENNTSPYPESGFEFMQGFVATIEDTLPEDRKGKYFNYADTTLDKEEAQKLYWRGNLEKLQAIKAKYDPEDVFGNVVSVEPIA
- Activity, Deglycosylated ([1]; deglycosylated with PNGaseF (native conditions), 10 mM maltose, 15 min at 37° C., duplicate): 3.43 nmol/min
- loss in enzyme activity on deglycosylation ([1]; deglycosylation under native conditions): did not cause a detectable loss in enzyme activity
- Activity, Glycosylated ([1]; glycosylated enzyme, 10 mM maltose, 15 min at 37° C., duplicate): 3.51 nmol/min
- stability at 45° C. ([2]; 1 h at 45° C.): stable
- Residual activity after 1 h ([2]; incubation at 25° C.): 100%
- Residual activity after 1 h ([2]; incubation at 30° C.): 95%
- Residual activity after 1 h ([2]; incubation at 35° C.): 100%
- Residual activity after 1 h ([2]; incubation at 40° C.): 100%
- Residual activity after 1 h ([2]; incubation at 45° C.): 64%
- Residual activity after 1 h ([2]; incubation at 50° C.): 7%
- Residual activity after 1 h ([2]; incubation at 55° C.): <5%
- Residual activity after 1 h ([2]; incubation at 60° C.): <5%
- activity retained after 1 h of incubation (pH stability of enzyme; pH 4): 40%
- activity retained after 1 h of incubation (pH stability of enzyme; pH 5 to pH 10): more than 80%
- activity retained after 1 h of incubation (pH stability of enzyme; pH values below 3 or above 11): less than 10%
- pH optimum (Optimum pH for activity): 10 pH
- Specific Activity of Enzyme Variants [3]: 10.8 µmol/min/mg
- Km [4]: 100 ± 0 µM
- kcat [4]: 8.813 ± 0.085 s⁻¹
- kcat/Km [4]: 89800 ± 867 M⁻¹ s⁻¹
- Km [5]: 100 ± 10 µM
- kcat [5]: 8.31 ± 0.123 s⁻¹
- kcat/Km [5]: 84300 ± 8530 M⁻¹ s⁻¹
- Km [6]: 17360 ± 700 µM
- Km [7]: 70 ± 10 µM
- kcat [7]: 6.25 ± 0.178 s⁻¹
- kcat/Km [7]: 95500 ± 13900 M⁻¹ s⁻¹
- Km [8]: 90 ± 10 µM
- kcat [8]: 6.02 ± 0.192 s⁻¹
- kcat/Km [8]: 70600 ± 8150 M⁻¹ s⁻¹
- Km [9]: 2810 ± 160 µM
- Specific Activity of Enzyme Variants ([10]; 10 mM NAG, 37° C., 15 min): 0.2 µmol/min/mg
- Specific activity Defined substrate concentration ([10]; 10 mM NAG, 37° C., 15 min): 0.25 µmol/mg/min
- oxidation of NAG ([10]; after 3 min using 10 mM sugar): detected
- Specific activity From Vmax ([10]; substrate NAG): 8.00 µmol/mg/min
- Specific Activity of Enzyme Variants ([11]; 10 mM glucose, 37° C., 15 min): 2.6 µmol/min/mg
- Specific activity Defined substrate concentration ([11]; 10 mM glucose, 37° C., 15 min): 2.62 µmol/mg/min
- Specific activity From Vmax ([11]; substrate glucose): 7.41 µmol/mg/min
- Specific Activity of Enzyme Variants [12, 16]: 0.5 µmol/min/mg
- Specific activity Defined substrate concentration [12, 16]: 0.52 µmol/mg/min
- oxidation of galactose ([12]; after 3 min using 10 mM sugar): detected
- Specific activity From Vmax ([12]; substrate galactose): 7.08 µmol/mg/min
- Specific Activity of Enzyme Variants [13, 17]: 5.4 µmol/min/mg
- Specific activity Defined substrate concentration [13, 17]: 5.38 µmol/mg/min
- Specific activity From Vmax ([13]; substrate cellobiose): 6.18 µmol/mg/min
- Specific Activity of Enzyme Variants [14, 18]: 7.5 µmol/min/mg
- Specific activity Defined substrate concentration [14, 18]: 7.48 µmol/mg/min
- Specific activity From Vmax ([14]; substrate xylotriose): 8.23 µmol/mg/min
- Specific Activity of Enzyme Variants [15, 19]: 5.1 µmol/min/mg
- Specific activity Defined substrate concentration [15, 19]: 5.12 µmol/mg/min
- Specific activity From Vmax ([15]; substrate cellotriose): 5.96 µmol/mg/min
